Results from patent publication US20150309050A1.
No end group written: not given here.

Assays:
VT026 antiserum [1] = assay: competition RIA, antiserum 1:100K, tracer iodinated PACAP(31-38)
VT026 antiserum [2] = assay: RIA standard curve, tracer iodinated PACAP(31-38); 2 pg cold standard
VT027 antiserum [3] = assay: as above
VT028 antiserum [4] = assay: as above
VT027 antiserum [5] = assay: RIA standard curve, tracer iodinated PACAP(31-38); 125 pg cold standard (so in the source)
VT028 antiserum [6] = assay: RIA standard curve, tracer iodinated PACAP(31-38); 16 pg cold standard
VT026 antiserum [7] = assay: RIA standard curve, tracer iodinated PACAP(31-38); 5 pg cold standard (so in the source)
VT028 antiserum [8] = assay: RIA standard curve, tracer iodinated PACAP(31-38); 128 pg cold standard; period in the CPM read as thousands mark
VT028 antiserum [9] = assay: RIA standard curve, tracer iodinated PACAP(31-38); 2.040 pg cold standard as printed (read as 2,040)
VT026 antiserum [10] = assay: competition RIA, tracer iodinated PACAP(31-38); high end tied to VT026 by Table 5 (20.3 fmol)
VT028 antiserum [11] = assay: RIA standard curve, tracer iodinated PACAP(31-38); 2 pg cold standard; period in the CPM read as thousands mark
VT028 antiserum [12] = assay: RIA standard curve, tracer iodinated PACAP(31-38); 54 pg cold standard (so in the source)
VT028 antiserum [13] = assay: RIA standard curve, tracer iodinated PACAP(31-38); 255 pg cold standard; period in the CPM read as thousands mark
VT026 antiserum [14] = assay: RIA standard curve, tracer iodinated PACAP(31-38); 128 pg cold standard
VT028 antiserum [15] = assay: as above
VT026 antiserum [16] = assay: RIA standard curve, tracer iodinated PACAP(31-38); 18 pg cold standard (so in the source)
VT027 antiserum [17] = assay: as above
VT026 antiserum [18] = assay: RIA standard curve, tracer iodinated PACAP(31-38); 510 pg cold standard
VT027 antiserum [19] = assay: as above
VT028 antiserum [20] = assay: as above
VT026 antiserum [21] = assay: RIA standard curve, tracer iodinated PACAP(31-38); 32 pg cold standard
VT027 antiserum [22] = assay: as above
VT028 antiserum [23] = assay: as above
VT026 antiserum [24] = assay: RIA standard curve, tracer iodinated PACAP(31-38); 84 pg cold standard (so in the source)
VT027 antiserum [25] = assay: as above
VT026 antiserum [26] = assay: RIA standard curve, tracer iodinated PACAP(31-38); 2,040 pg cold standard
VT027 antiserum [27] = assay: as above
VT028 antiserum [28] = assay: RIA standard curve, tracer iodinated PACAP(31-38); 32 pg cold standard; period in the CPM read as thousands mark
VT028 antiserum [29] = assay: RIA standard curve, tracer iodinated PACAP(31-38); 1.020 pg cold standard as printed (read as 1,020); period in the CPM read as thousands mark
VT028 antiserum [30] = assay: RIA standard curve, tracer iodinated PACAP(31-38); 8 pg cold standard; period in the CPM read as thousands mark
VT028 antiserum [31] = assay: RIA standard curve, tracer iodinated PACAP(31-38); 4 pg cold standard; period in the CPM read as thousands mark
VT028 antiserum [32] = assay: RIA standard curve, tracer iodinated PACAP(31-38); 1.020 pg cold standard as printed (read as 1,020)
[33] = biological target: PACAP38 RIA antiserum (Peninsula Laboratories); assay: competition RIA, double antibody immunoprecipitation, antiserum 1:30,000
VT026 antiserum [34] = assay: RIA standard curve, tracer iodinated PACAP(31-38); 1,020 pg cold standard
VT027 antiserum [35] = assay: as above
VT027 antiserum [36] = assay: RIA standard curve, tracer iodinated PACAP(31-38); 3 pg cold standard (so in the source)
VT028 antiserum [37] = assay: RIA standard curve, tracer iodinated PACAP(31-38); 8 pg cold standard
VT026 antiserum [38] = assay: RIA standard curve, tracer iodinated PACAP(31-38); 255 pg cold standard
VT027 antiserum [39] = assay: as above
VT028 antiserum [40] = assay: as above
VT026 antiserum [41] = assay: RIA standard curve, tracer iodinated PACAP(31-38); 4 pg cold standard
VT027 antiserum [42] = assay: as above
VT028 antiserum [43] = assay: as above
VT028 antiserum [44] = assay: RIA standard curve, tracer iodinated PACAP(31-38); 54 pg cold standard (so in the source); period in the CPM read as thousands mark
VT028 antiserum [45] = assay: RIA standard curve, tracer iodinated PACAP(31-38); 1 pg cold standard; period in the CPM read as thousands mark
VT027 antiserum [46] = assay: competition RIA, tracer iodinated PACAP(31-38); low end tied to VT027 by Table 6 (41 pg)
VT028 antiserum [47] = assay: RIA standard curve, tracer iodinated PACAP(31-38); 16 pg cold standard; period in the CPM read as thousands mark
VT027 antiserum [48] = assay: competition RIA, antiserum 1:200K, tracer iodinated PACAP(31-38)
VT028 antiserum [49] = assay: as above
VT026 antiserum [50] = assay: RIA standard curve, tracer iodinated PACAP(31-38); 1 pg cold standard
VT027 antiserum [51] = assay: as above
VT028 antiserum [52] = assay: as above
VT028 antiserum [53] = assay: RIA standard curve, tracer iodinated PACAP(31-38); 510 pg cold standard; period in the CPM read as thousands mark

- DETECTION LIMIT (VT026 antiserum [1]): 5.38 pg
- MIDPOINT [fmol] (VT026 antiserum [1]): 20.3 fmol
- MIDPOINT [pg] (VT026 antiserum [1]): 92 pg
- BINDING (VT026 antiserum [2]): 0.961
- CPM (VT026 antiserum [2]): 5540 cpm
- BINDING (VT027 antiserum [3]): 0.931
- CPM (VT027 antiserum [3]): 7620 cpm
- BINDING (VT028 antiserum [4]): 0.981
- BINDING (VT027 antiserum [5]): 0.245
- CPM (VT027 antiserum [5]): 2190 cpm
- BINDING (VT028 antiserum [6]): 0.88
- BINDING (VT026 antiserum [7]): 0.945
- CPM (VT026 antiserum [7]): 5450 cpm
- CPM (VT028 antiserum [8]): 4350 cpm
- BINDING (VT028 antiserum [9]): 0.0389
- CPM (VT028 antiserum [9]): 684 cpm
- assay midpoint (VT026 antiserum [10]): 20 fmol
- CPM (VT028 antiserum [11]): 11200 cpm
- BINDING (VT028 antiserum [12]): 0.606
- CPM (VT028 antiserum [13]): 2760 cpm
- BINDING (VT026 antiserum [14]): 0.427
- CPM (VT026 antiserum [14]): 2800 cpm
- BINDING (VT028 antiserum [15]): 0.367
- BINDING (VT026 antiserum [16]): 0.859
- CPM (VT026 antiserum [16]): 4980 cpm
- BINDING (VT027 antiserum [17]): 0.715
- CPM (VT027 antiserum [17]): 5900 cpm
- BINDING (VT026 antiserum [18]): 0.142
- CPM (VT026 antiserum [18]): 1030 cpm
- BINDING (VT027 antiserum [19]): 0.0789
- CPM (VT027 antiserum [19]): 875 cpm
- BINDING (VT028 antiserum [20]): 0.133
- BINDING (VT026 antiserum [21]): 0.728
- CPM (VT026 antiserum [21]): 4250 cpm
- BINDING (VT027 antiserum [22]): 0.584
- CPM (VT027 antiserum [22]): 4860 cpm
- BINDING (VT028 antiserum [23]): 0.77
- BINDING (VT026 antiserum [24]): 0.502
- CPM (VT026 antiserum [24]): 3450 cpm
- BINDING (VT027 antiserum [25]): 0.411
- CPM (VT027 antiserum [25]): 3500 cpm
- BINDING (VT026 antiserum [26]): 0.0479
- CPM (VT026 antiserum [26]): 515 cpm
- BINDING (VT027 antiserum [27]): 0.0302
- CPM (VT027 antiserum [27]): 490 cpm
- CPM (VT028 antiserum [28]): 8840 cpm
- CPM (VT028 antiserum [29]): 1020 cpm
- CPM (VT028 antiserum [30]): 10400 cpm
- CPM (VT028 antiserum [31]): 10800 cpm
- BINDING (VT028 antiserum [32]): 0.0685
- assay midpoint [33]: 3.5 fmol
- BINDING (VT026 antiserum [34]): 0.0598
- CPM (VT026 antiserum [34]): 800 cpm
- BINDING (VT027 antiserum [35]): 0.0512
- CPM (VT027 antiserum [35]): 858 cpm
- BINDING (VT027 antiserum [36]): 0.835
- CPM (VT027 antiserum [36]): 6850 cpm
- BINDING (VT028 antiserum [37]): 0.914
- BINDING (VT026 antiserum [38]): 0.271
- CPM (VT026 antiserum [38]): 1740 cpm
- BINDING (VT027 antiserum [39]): 0.147
- CPM (VT027 antiserum [39]): 1140 cpm
- BINDING (VT028 antiserum [40]): 0.227
- BINDING (VT026 antiserum [41]): 0.957
- CPM (VT026 antiserum [41]): 5510 cpm
- BINDING (VT027 antiserum [42]): 0.589
- CPM (VT027 antiserum [42]): 7280 cpm
- BINDING (VT028 antiserum [43]): 0.946
- CPM (VT028 antiserum [44]): 7010 cpm
- CPM (VT028 antiserum [45]): 11300 cpm
- assay midpoint (VT027 antiserum [46]): 9 fmol
- CPM (VT028 antiserum [47]): 10100 cpm
- DETECTION LIMIT (VT027 antiserum [48]): 2.19 pg
- MIDPOINT [fmol] (VT027 antiserum [48]): 92 fmol
- MIDPOINT [pg] (VT027 antiserum [48]): 41 pg
- DETECTION LIMIT (VT028 antiserum [49]): 6.69 pg
- MIDPOINT [fmol] (VT028 antiserum [49]): 19.3 fmol
- MIDPOINT [pg] (VT028 antiserum [49]): 67 pg
- BINDING (VT026 antiserum [50]): 0.973
- CPM (VT026 antiserum [50]): 5600 cpm
- BINDING (VT027 antiserum [51]): 0.978
- CPM (VT027 antiserum [51]): 7960 cpm
- BINDING (VT028 antiserum [52]): 0.993
- CPM (VT028 antiserum [53]): 1730 cpm
Binder: HSDGIFTDSYSRYRKQMAVKKYLAAVLGKRYKQRVKNK (peptide, UniProt P18509 132-169, looked up, not fully specified; ends and bridges not checked) [PACAP38]
